In one data set the target is Strep-FAM111A (human, UniProt Q96PZ2 1-611). The data set can be described thus: fluorescence polarization; EMSA: 25 mM Tris-HCl pH 7.5, 5 mM MgCl2, 10% glycerol, 20 ng/ul BSA, 1 mM DTT, 0.7 pmol DNA in 10 ul, on ice 1 h; FP: 10 mM HEPES-NaOH pH 7.5, 150 mM NaCl, 10 nM DNA. The note with it: protein: recombinant; tags: N-terminal tandem Strep; label: 5' 6-FAM; single strand.

The target in the next data set is MBP-FAM111A 1-282 (human, UniProt Q96PZ2 1-282). The data set can be described thus: EMSA; 5 mM Mg2+; EMSA: 25 mM Tris-HCl pH 7.5, 5 mM MgCl2, 10% glycerol, 20 ng/ul BSA, 1 mM DTT, 0.7 pmol DNA in 10 ul, on ice 1 h; FP: 10 mM HEPES-NaOH pH 7.5, 150 mM NaCl, 10 nM DNA. The note with it: protein: recombinant; tags: N-terminal MBP; label: 5' IRDye700; single strand.
Chain of MBP-FAM111A 1-282 (Q96PZ2 1-282): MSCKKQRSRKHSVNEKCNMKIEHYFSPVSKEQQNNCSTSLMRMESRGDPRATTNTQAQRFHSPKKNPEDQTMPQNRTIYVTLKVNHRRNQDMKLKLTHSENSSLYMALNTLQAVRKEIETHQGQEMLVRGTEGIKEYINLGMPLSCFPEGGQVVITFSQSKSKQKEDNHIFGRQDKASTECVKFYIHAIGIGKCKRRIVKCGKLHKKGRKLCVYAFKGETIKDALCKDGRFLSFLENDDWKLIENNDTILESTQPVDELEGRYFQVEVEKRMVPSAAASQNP
In the next data set the target is MBP-FAM111A 176-282 (human, UniProt Q96PZ2 176-282). The description is as above. The following applies: protein: recombinant; tags: N-terminal MBP; label: 5' IRDye700; single strand.
Chain of MBP-FAM111A 176-282 (Q96PZ2 176-282): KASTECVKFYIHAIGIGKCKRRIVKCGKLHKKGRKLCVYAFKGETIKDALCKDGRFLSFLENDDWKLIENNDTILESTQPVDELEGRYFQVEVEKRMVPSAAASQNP
Data set [1] has as its target T1, GST-FAM111A-strep (human, UniProt Q96PZ2 1-611). The data set is described as above. The note with it: protein: recombinant, tags: N-terminal GST, C-terminal tandem Strep.
Data set [2] concerns the target T1, GST-FAM111A-strep. In words: EMSA; 5 mM Mg2+; up to 450 nM protein; EMSA: 25 mM Tris-HCl pH 7.5, 5 mM MgCl2, 10% glycerol, 20 ng/ul BSA, 1 mM DTT, 0.7 pmol DNA in 10 ul, on ice 1 h; FP: 10 mM HEPES-NaOH pH 7.5, 150 mM NaCl, 10 nM DNA. The note with it: protein: recombinant; tags: N-terminal GST, C-terminal tandem Strep; label: 5' IRDye700 on strand 1; fork 1:2 1:3 2:4; both arms double-stranded.

The source of these data is article PMC7067828, “FAM111A protects replication forks from protein obstacles via its trypsin-like domain”.

T1 sequence (Q96PZ2 whole entry): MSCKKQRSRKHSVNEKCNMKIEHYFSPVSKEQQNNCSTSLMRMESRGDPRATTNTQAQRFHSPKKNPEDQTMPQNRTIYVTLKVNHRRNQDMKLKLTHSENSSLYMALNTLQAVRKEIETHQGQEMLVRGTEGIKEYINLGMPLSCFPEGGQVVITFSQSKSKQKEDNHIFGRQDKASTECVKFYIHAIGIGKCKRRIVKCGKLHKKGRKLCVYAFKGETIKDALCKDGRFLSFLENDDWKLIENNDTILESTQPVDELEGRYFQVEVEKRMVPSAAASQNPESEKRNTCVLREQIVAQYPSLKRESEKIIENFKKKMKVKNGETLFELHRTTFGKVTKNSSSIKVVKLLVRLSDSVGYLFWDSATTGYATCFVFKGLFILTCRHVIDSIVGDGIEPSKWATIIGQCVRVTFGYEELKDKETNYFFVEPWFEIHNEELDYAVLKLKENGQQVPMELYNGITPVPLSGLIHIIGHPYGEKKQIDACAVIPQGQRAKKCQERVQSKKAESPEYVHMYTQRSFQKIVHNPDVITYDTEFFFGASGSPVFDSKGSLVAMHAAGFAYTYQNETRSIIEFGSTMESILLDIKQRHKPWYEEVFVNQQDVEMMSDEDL
Chain of Strep-FAM111A (Q96PZ2 whole entry): as above

Consider CGACGATGCTCCGGTACTCCAGTGTAGGCAT (ssDNA) [6-FAM-O1676 (31 nt)], for which, in the data set with Strep-FAM111A, the Kd was around 60 nM.

B1: ssDNA O3063 (75 nt) (ssDNA)
DNA: GTTTTCCCAGTCACGACGATGCTCCGGTACTCCAGTGTAGGCATATTACGAATTCTTGAGGCAGGCATGGTAGCT
Regarding B1, the binding result is reported as “binds” in the data set with MBP-FAM111A 1-282; “binds” with MBP-FAM111A 176-282; “binds” in the data set with GST-FAM111A-strep [1] (label: 5' IRDye700, single strand).

B2: Y fork O3063/O4787 (mixed)
DNA 1: B1 DNA
DNA 2: AGCTACCATGCCTGCCTCAAGAATTCGTAATATGCCTACACTGGACCGTACTTCGCCTAGTAGACTGCCTTCCCG
Take B2: in the data set with GST-FAM111A-strep [1] (label: 5' IRDye700 on strand 1, fork 1:2, 45 bp duplex, two 30-nt ss arms), the binding result is “binds”.

B3: dsY fork O3063/O4787/O3730/O3757 (dsDNA)
DNA 1: B1 DNA
DNA 2: B2 DNA 2
DNA 3: GTACCGGAGCATCGTCGTGACTGGGAAAAC
DNA 4: CGGGAAGGCAGTCTACTAGGCGAAGTACGG
Take B3: in the data set with GST-FAM111A-strep [2], the binding result is “no binding”.
